According to the PETadex activity labels (doi:10.1016/j.bbrc.2024.150833):

Substrate: pNPB
Assay: Proxy for plastic degradation [Absorbance @ 405nm]

B1: unnamed (protein)
chain: MTDVEIALSTGRVKGTDLGDVVRYYGIPYAEDPVGDLRFAAPVRREPWPGVRDATRPAATAQRLRFDPDPAIPEPIVAGTDILHVDVWAPTEGAGHPVLVWIHGGGWESGSSHQPWFVGTAFARAGIVVVSVGYRLGVEGFTAFPDAPDNRGVRDWIMALEWVRDEIAAFGGDPGQVTVSGQSAGGGAVLCLLASPLAAGLFHRGIASSPAVLRSPAAQAPKGTTAAGLAAGGRGAVDEFHRRLRKDNPFLMPFRPTVGDDTVPVPPLEGIGSGPGLDLPLLIGSTATEFEGVVRALPGAALVPGAAMILRSQELPTTGLRALARQSAGKSLRRAVGAVVDAATIHSTVVRAAETRVAAGAPTWVYDFRWSEGRGAVHCADLPFFWSVPEAANVRAYLGADAPPGLVDAMHRSWVDFVRSGDPGSPPYAPPGRRVQVWDEPPAVVEDGLADVRAVWWPAGGS
**Q.** How did the “Proxy for plastic degradation” value (pH 5) turn out when B1 was run?
**A.** 10.3 U/mg

**Q.** And the “Proxy for plastic degradation” value (pH 5.5)?
**A.** 15.4 U/mg

**Q.** And the “Proxy for plastic degradation” value (pH 6)?
**A.** 41.1 U/mg

**Q.** What about the “Proxy for plastic degradation” value (pH 6.5) of the same protein?
**A.** 61.7 U/mg

**Q.** And the “Proxy for plastic degradation” value (pH 7)?
**A.** 72 U/mg

**Q.** And the “Proxy for plastic degradation” value (pH 7.5)?
**A.** 77.1 U/mg

**Q.** And the “Proxy for plastic degradation” value (pH 8, 10 °C)?
**A.** 36 U/mg

**Q.** What about the “Proxy for plastic degradation” value (pH 8, 20 °C) of the same protein?
**A.** 46.3 U/mg

**Q.** What about the “Proxy for plastic degradation” value (pH 8, 25 °C) of the same protein?
**A.** 77.1 U/mg

**Q.** And the “Proxy for plastic degradation” value (pH 8, 30 °C)?
**A.** 92.6 U/mg

**Q.** And the “Proxy for plastic degradation” value (pH 8, 37 °C)?
**A.** 103 U/mg

**Q.** What about the “Proxy for plastic degradation” value (pH 8, 40 °C) of the same protein?
**A.** 84.9 U/mg

**Q.** And the “Proxy for plastic degradation” value (pH 8, 50 °C)?
**A.** 59.7 U/mg

**Q.** And the “Proxy for plastic degradation” value (pH 8, 60 °C)?
**A.** 20.6 U/mg

**Q.** And the “Proxy for plastic degradation” value (pH 8, 70 °C)?
**A.** 10.3 U/mg

**Q.** And the “Proxy for plastic degradation” value (pH 8.5)?
**A.** 92.6 U/mg

**Q.** What about the “Proxy for plastic degradation” value (pH 9) of the same protein?
**A.** 87.4 U/mg
